Target: His-CaDpb3 (Dpb3 subunit of DNA polymerase epsilon of C. albicans, wild type) (C. albicans)
Assay: ITC; 20 µM wild-type or mutant CaDpb3 in the sample cell, 100 µM CaDpb4 injected from the syringe (25 injections of 1.5 µL); 25°C; 20 mM HEPES pH 7.4, 150 mM NaCl; one-site binding model

In the case of “His-CaDpb4 (Dpb4 subunit of DNA polymerase epsilon of C. albicans, wild type) (from UniProt A0A1D8PG40 1-261) (natural protein)”, the Kd is reported as 55 µM and the stoichiometry N is reported as 1.

Source: PMC11481497
